Numbering of substitutions follows the chain as printed. In names and notes the source's numbering stands.
Tests used:
Assay in all cases: cell_activity; human T cells, 1 ug mRNA, day 3
Conditions in all cases: tags: N-terminal SV40 NLS
B2M 13-14x.202 = target: T1, B2M 13-14x.202 (Artificial Sequence)
T1 chain: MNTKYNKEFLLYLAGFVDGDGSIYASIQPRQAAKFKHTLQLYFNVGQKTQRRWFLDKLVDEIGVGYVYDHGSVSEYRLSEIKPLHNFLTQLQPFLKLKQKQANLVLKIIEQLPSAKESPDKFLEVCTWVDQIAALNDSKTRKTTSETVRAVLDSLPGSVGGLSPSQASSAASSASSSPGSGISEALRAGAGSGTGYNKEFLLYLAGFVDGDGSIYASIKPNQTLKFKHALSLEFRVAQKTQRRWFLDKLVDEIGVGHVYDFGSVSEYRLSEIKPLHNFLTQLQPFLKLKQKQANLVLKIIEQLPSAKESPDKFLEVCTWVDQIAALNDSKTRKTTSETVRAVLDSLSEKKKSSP
Description: (§1) Donor human T cells were stimulated with anti-CD3 and anti-CD28 antibodies for 3 days, then electroporated with mRNA encoding a given B2M 13-14 meganuclease (1 μg) using the Amaxa 4D-Nucleofector (Lonza) according to the manufacturer's instructions. To look for the loss of B2M surface expression, cells were stained with an antibody recognizing β-2 microglobulin (BD Biosciences) as well as an antibody recognizing CD3 (BioLegend), a marker of T cells.

B2M 13-14x.551 = target: T2, B2M 13-14x.551 (Artificial Sequence)
T2 chain: T1 chain with A32R, A33S, T38S, S217G, N221R, T223R, A229Q, S231L, A237S, F261A
Description: as §1

B2M 13-14x.93 QE = target: T3, B2M 13-14x.93 QE (Artificial Sequence)
T3 chain: T1 chain with Q28R, R30Q, A32S, T38N, E80Q
Description: (§2) To test these variants of B2M 13-14x.93, donor human T cells were stimulated with anti-CD3 and anti-CD28 antibodies for 3 days, then electroporated with mRNA encoding a given B2M 13-14 meganuclease (1 μg) using the Amaxa 4D-Nucleofector (Lonza) according to the manufacturer's instructions. At 3 days post-electroporation, cells were stained with an antibody recognizing β-2 microglobulin (BD Biosciences) and analyzed by flow cytometry.

B2M 13-14x.93 QQK66 = target: T4, B2M 13-14x.93 QQK66 (Artificial Sequence)
T4 chain: T1 chain with Q28R, R30Q, A32S, T38N, Y66K, E80Q, E271Q
Description: as §2

B2M 13-14x.93 EQR66 = target: T5, B2M 13-14x.93 EQR66 (Artificial Sequence)
T5 chain: T1 chain with Q28R, R30Q, A32S, T38N, Y66R, E271Q
Description: as §2

B2M 13-14x.93 EER66 = target: T6, B2M 13-14x.93 EER66 (Artificial Sequence)
T6 chain: T1 chain with Q28R, R30Q, A32S, T38N, Y66R
Description: as §2

B1: B2M 13-14 recognition sequence (dsDNA)
DNA 1: CTATCTCTTGTACTACACTGAA
DNA 2: TTCAGTGTAGTACAAGAGATAG
B1 gave an activity (B2M 13-14x.202) of 60.9 % B2M-negative, an activity (B2M 13-14x.551) of 40.3 % B2M-negative and an activity (B2M 13-14x.93 QE) of 37 % B2M-negative. It also gave an activity (B2M 13-14x.93 QQK66) of 2.64 % B2M-negative, an activity (B2M 13-14x.93 EQR66) of 5.12 % B2M-negative and an activity (B2M 13-14x.93 EER66) of 7.07 % B2M-negative.
